PMC5027247

How the values were obtained:
Experiment in all cases: ITC; 25 °C; 50 mM Tris pH 7.5, 100 mM NaCl, 1 mM EDTA, 1 mM DTT; 1 mM TBK1 fragment in the syringe, 0.1 mM OPTN or NAP1 fragment in the cell; one-site binding model
[1] = target: OPTN L47Q (ITC sample) (human) (UniProt Q96CV9)
[2] = target: OPTN L54Q (ITC sample) (human) (UniProt Q96CV9)
[3] = target: OPTN M44Q (ITC sample) (human) (UniProt Q96CV9)

- Kd [1]: 26 µM
- Kd [2]: 20 µM
- Kd [3]: 22.6 µM
B1: TBK1 CTD (residues 677–729) (domain or fragment)
chain: YPSSNTLVEMTLGMKKLKEEMEGVVKELAENNHILERFGSLTMDGGLRNVDCL
